Measurements from publication PMC3592467.

Biological target: CDC5L–GFP (UniProt Q99459)
Assay: affinity purification with mass spectrometry

Sequence of HSP70 (P11142 whole entry): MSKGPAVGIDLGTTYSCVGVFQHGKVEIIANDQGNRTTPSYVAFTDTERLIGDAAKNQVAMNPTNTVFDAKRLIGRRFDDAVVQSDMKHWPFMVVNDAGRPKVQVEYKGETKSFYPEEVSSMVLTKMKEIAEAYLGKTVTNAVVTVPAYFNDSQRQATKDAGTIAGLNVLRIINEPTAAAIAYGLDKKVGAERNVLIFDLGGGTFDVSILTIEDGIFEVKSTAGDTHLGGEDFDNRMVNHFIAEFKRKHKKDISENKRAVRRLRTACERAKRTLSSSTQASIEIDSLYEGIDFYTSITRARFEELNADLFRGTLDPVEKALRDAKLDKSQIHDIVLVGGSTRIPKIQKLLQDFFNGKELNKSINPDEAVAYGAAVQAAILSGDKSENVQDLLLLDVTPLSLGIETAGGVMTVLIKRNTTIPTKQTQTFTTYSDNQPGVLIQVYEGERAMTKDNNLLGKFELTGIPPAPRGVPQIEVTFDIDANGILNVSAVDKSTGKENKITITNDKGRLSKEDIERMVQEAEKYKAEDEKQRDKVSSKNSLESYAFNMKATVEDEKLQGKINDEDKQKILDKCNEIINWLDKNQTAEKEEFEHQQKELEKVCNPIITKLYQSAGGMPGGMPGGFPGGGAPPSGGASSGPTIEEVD
Sequence of CDC5L–GFP (Q99459 whole entry): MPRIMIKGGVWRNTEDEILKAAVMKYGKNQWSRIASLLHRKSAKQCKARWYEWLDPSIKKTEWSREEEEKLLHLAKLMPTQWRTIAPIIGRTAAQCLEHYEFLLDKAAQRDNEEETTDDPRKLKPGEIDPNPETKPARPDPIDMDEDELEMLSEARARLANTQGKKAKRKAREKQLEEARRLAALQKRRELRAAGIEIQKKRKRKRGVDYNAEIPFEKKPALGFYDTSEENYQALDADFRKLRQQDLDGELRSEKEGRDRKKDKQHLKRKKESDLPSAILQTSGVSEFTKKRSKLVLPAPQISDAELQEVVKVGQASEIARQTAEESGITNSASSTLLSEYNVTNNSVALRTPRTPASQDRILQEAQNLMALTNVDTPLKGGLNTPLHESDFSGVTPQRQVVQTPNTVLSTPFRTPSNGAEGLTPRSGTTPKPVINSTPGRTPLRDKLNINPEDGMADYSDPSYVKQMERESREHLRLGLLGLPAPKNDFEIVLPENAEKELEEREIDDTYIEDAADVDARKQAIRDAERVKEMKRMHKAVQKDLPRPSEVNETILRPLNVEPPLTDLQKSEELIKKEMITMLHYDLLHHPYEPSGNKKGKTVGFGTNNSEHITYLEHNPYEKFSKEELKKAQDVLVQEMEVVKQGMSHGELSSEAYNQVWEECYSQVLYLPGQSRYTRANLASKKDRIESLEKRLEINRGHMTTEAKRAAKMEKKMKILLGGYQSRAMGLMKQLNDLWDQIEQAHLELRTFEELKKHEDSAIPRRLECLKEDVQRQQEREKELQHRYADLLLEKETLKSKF

“HSP70 (from UniProt P11142 1-646) (natural protein)” was tested, and the stoichiometry N (relative to CDC5L) was 0.2 and the stoichiometry with CDC5L as a dimer (CDC5L 2) (per CDC5L dimer) was 0.4.
